Data as given in paper PMC7782499, “Progerinin, an optimized progerin-lamin A binding inhibitor, ameliorates premature senescence phenotypes of Hutchinson-Gilford progeria syndrome” (Communications Biology, 2021).
Where “and” joins values, the source holds several entries; their conditions need not be identical. Equal values may be shown once.

Tests used:
[1] = Plasma protein binding, rat; format: in vitro ADME
Protocol: (§1) At pre-set time-points, blood concentration of JH4 was determined by LC-MS/MS analysis[22],[23]. Other chemicals were also tested using similar protocol. In vitro ADME studies (plasma protein binding, CYP inhibition, microsomal stability, plasma stability, and hERG inhibition) were performed by New Drug Development Center (Daegu, Korea) using standard protocols[24],[25].

[2] = Plasma protein binding, human; format: in vitro ADME
Protocol: as §1

HEK293 cells [3] = test: GFP-tagged protein and H3K9me3 expression in transfected HEK293 cells; format: cell-based; details: for GFP relative expression (ratio), Ave: average (Fig S1F); for Relative H3K9me3 expression, Ave: average (Fig S1G); for GFP relative expression (ratio): single replicates (Fig S1F); for Relative H3K9me3 expression: single replicates (Fig S1G); for GFP positive cells in total cells, Ave / GFP positive cells in total cells: transfected cells; for GFP positive cells in total cells, Ave / GFP relative expression in Western Blot, Ave: average (Fig S1D); for GFP positive cells in total cells / GFP relative expression in Western Blot: single replicates (Fig S1D);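 on Relative H3K9me3 expression, Ave: Western blot band quantification of H3K9me3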;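 on Relative H3K9me3 expression: Western blot band quantification of H3K9me3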
Text: (§2) GFP tag conjugated EV (GFP-EV), lamin A (GFP-LA), lamin A-C661A (GFP-LA-C661A), progerin (GFP-PG), and progerin-C611A (GFP-PG-C611A) vectors were used. GFP-PG and GFP-LA expression vectors were kindly provided by Misteli T. (National Cancer Institute [NCI], Frederick, MD, USA). GFP-LA-C661A and GFP-PG-C611A expression vectors were created by a single point mutation in CaaX motif. The CSIM sequence of lamin A, or progerin was mutated to ASIM. jetPEI (Polyplus Transfection, NY, USA) was used for transfection of expression vectors. Vectors were mixed with 1.5 μl of jetPEI in 150 mM NaCl solution. The mixture was added to HEK293 cells. After 4 h of incubation, medium was replaced with a new medium supplemented with 10% FBS.
Protein was extracted from cells using a radioimmunoprecipitation assay (RIPA) buffer (50 mM Tris-Cl, pH 7.5, 150 mM NaCl, 1% NP-40, 0.1% SDS, and 10% sodium deoxycholate). Samples were separated by sodium dodecyl sulfate-polyacrylamide gel electrophoresis (SDS-PAGE) and transferred to polyvinylidene difluoride (PVDF) membranes. Blotted membranes were blocked with 3% skimmed milk in TBS-T buffer (20 mM Tris pH 7.6, 150 mM NaCl, and 0.05% Tween 20) for 1 h followed by incubation with specific primary antibodies. Horseradish peroxidase (HRP)-conjugated goat anti-mouse, goat anti-rabbit, and mouse anti-goat IgG antibodies (Pierce, Thermo Fisher Scientific, Inc., Rockford, IL, USA) were used as secondary antibodies. Peroxidase activity was detected by chemiluminescence using an ECL kit (Intron, Seoul, Korea) following the manufacturer’s instructions. Bands were quantified using Image J software (National Institute of Health, NIH).
(§3) Fig. S1. Generation of point mutation in CaaX motif of lamin A and progerin for blocking farnesylation.
(§4) A. Sequence of expression vector encoding LA-C661A was created by single point mutation in CaaX motif.
WT-LA with CSIM sequence was mutated to ASIM. B. Sequence of expression vector encoding progerin-C611A with a single point mutation in CaaX motif. Progerin with CSIM sequence was mutated to ASIM.
C. Transient transfection of HEK293 cells with LA-C661A or PG-C611A seems to be indistinguishable from that of authentic WT-LA, or progerin. D. Measurement of proteins (GFP-LA, GFP-LA-C661A, GFP-PG, and GFP-PG-C611A) expression by counting of GFP-positive cells and western blot analysis. The blue […]
fluorescence images were randomly selected and the number of GFP expressing cells were calculated. The […]
experiment; two-tailed Student’s t-test), N.S: not significant. Quantification of western blot by Ima ge J software (National Institute of Health, NIH). […]
Quantification of GFP -tagged expression vector encoding e mpty (EV), wild-type lamin A (WT-LA), lamin A-C661A (LA-C661A), progerin, or progerin- C611A. Blots of GFP expression were quantified using Image J software. (n = 3 independent experiment; two- tailed Student’s t -test), N.S: not significant. G.
Quantification of H3K9me3 expression. […]

HEK293 cells [4] = test: Nuclear deformation in GFP-positive HEK293 cells transfected with lamin A / progerin vectors; format: cell-based; details: for % of deformed nuclei in GFP positive cells, Ave: average (Fig S1E); for % of deformed nuclei in GFP positive cells: single replicates (Fig S1E)
Text: as §2
For nuclear deformation cell counting, immunofluorescence staining was performed with lamin A or progerin antibodies. After staining, abnormal nuclear membrane was counted in randomly selected fields and expressed as percentages or actual numbers of total cells counted. Abnormalities of nuclear membrane were determined based on the following: (1) lamin A/C or progerin lining was extruded or engulfed, (2) having at least one bleb, and (3) irregular contour. Counting of cells with nuclear deformation was performed by three independent observers who were blinded to chemical treatment group. To analyze histone H3K9me3 intensity or expression, images were quantified using “color histogram” function of Image J software (National Institute of Health, NIH). Fluorescence intensities were subtracted by background signals.
as §3, §4
WT-LA with CSIM sequence was mutated to ASIM. B. Sequence of expression vector encoding progerin-
C611A with a single point mutation in CaaX motif. Progerin with CSIM sequence was mutated to ASIM. […]
D. Measurement of proteins (GFP-LA, GFP-LA-C661A, GFP- […]
Quantification of western blot by Ima ge J
software (National Institute of Health, NIH). E. Quantification of nuclear deformation in GFP positive
HEK293 cells. At least 100 cells/sample/experiment were counted by two independent researchers. The
statistical significance was analyzed by Student’s t -test. **p < 0.001, *p < 0.05, N.S: not significant. F. […]

Row | fraction unbound [1] | Plasma protein binding [2] [% Bound] | fraction unbound ([2]; human, plasma) | Molecule | GFP relative expression (ratio), Ave (HEK293 cells [3]) | Relative H3K9me3 expression, Ave (HEK293 cells [3]) | GFP relative expression (ratio) (HEK293 cells [3]) | Relative H3K9me3 expression (HEK293 cells [3]) | GFP positive cells in total cells, Ave (HEK293 cells [3]) | GFP positive cells in total cells (HEK293 cells [3]) | % of deformed nuclei in GFP positive cells, Ave (HEK293 cells [4]) [%] | % of deformed nuclei in GFP positive cells (HEK293 cells [4]) | GFP relative expression in Western Blot, Ave (HEK293 cells [3]) | GFP relative expression in Western Blot (HEK293 cells [3])
1 | 0.156 | 62.1 | 0.345 | C[C@@H]1C[C@H]2[C@@H]3CCC4=CC(=O)C=C[C@]4(C)[C@@]3(F)[C@@H](O)C[C@]2(C)[C@@]1(O)C(=O)CO [Dexamethasone] |  |  |  |  |  |  |  |  |  | 
2 |  |  |  | PG-C611A (protein, left off: GFP, end not stated, kept) METPSQRRATRSGAQASSTPLSPTRITRLQEKEDLQELNDRLAVYIDRVRSLETENAGLRLRITESEEVVSREVSGIKAAYEAELGDARKTLDSVAKERARLQLELSKVREEFKELKARNTKKEGDLIAAQARLKDLEALLNSKEAALSTALSEKRTLEGELHDLRGQVAKLEAALGEAKKQLQDEMLRRVDAENRLQTMKEELDFQKNIYSEELRETKRRHETRLVEIDNGKQREFESRLADALQELRAQHEDQVEQYKKELEKTYSAKLDNARQSAERNSNLVGAAHEELQQSRIRIDSLSAQLSQLQKQLAAKEAKLRDLEDSLARERDTSRRLLAEKEREMAEMRARMQQQLDEYQELLDIKLALDMEIHAYRKLLEGEEERLRLSPSPTSQRSRGRASSHSSQTQGGGSVTKKRKLESTESRSSFSQHARTSGRVAVEEVDEEGKFVRLRNKSNEDQSMGNWQIKRQNGDDPLLTYRFPPKFTLKAGQVVTIWAAGAGATHSPPTDLVWKAQNTWGCGNSLRTALINSTGEEVAMRKLVRSVTVVEDDEDEDGDDLLHHHHGSHCSSSGDPAEYNLRSRTVLCGTCGQPADKASASGSGAQSPQNASIM | 0.82 | 2.153 | 0.9957 and 0.6855 and 0.7789 | 2.22 and 2.38 and 1.86 | 0.7166 | 0.624 (2×) and 0.546 and 0.585 and 0.819 and 0.897 and 0.78 and 0.858 | 97.7143 | 95% and 100% and 96% and 98% |  | 
3 |  |  |  | WT-LA (protein, left off: GFP, end not stated, state not stated) METPSQRRATRSGAQASSTPLSPTRITRLQEKEDLQELNDRLAVYIDRVRSLETENAGLRLRITESEEVVSREVSGIKAAYEAELGDARKTLDSVAKERARLQLELSKVREEFKELKARNTKKEGDLIAAQARLKDLEALLNSKEAALSTALSEKRTLEGELHDLRGQVAKLEAALGEAKKQLQDEMLRRVDAENRLQTMKEELDFQKNIYSEELRETKRRHETRLVEIDNGKQREFESRLADALQELRAQHEDQVEQYKKELEKTYSAKLDNARQSAERNSNLVGAAHEELQQSRIRIDSLSAQLSQLQKQLAAKEAKLRDLEDSLARERDTSRRLLAEKEREMAEMRARMQQQLDEYQELLDIKLALDMEIHAYRKLLEGEEERLRLSPSPTSQRSRGRASSHSSQTQGGGSVTKKRKLESTESRSSFSQHARTSGRVAVEEVDEEGKFVRLRNKSNEDQSMGNWQIKRQNGDDPLLTYRFPPKFTLKAGQVVTIWAAGAGATHSPPTDLVWKAQNTWGCGNSLRTALINSTGEEVAMRKLVRSVTVVEDDEDEDGDDLLHHHHGSHCSSSGDPAEYNLRSRTVLCGTCGQPADKASASGSGAQVGGPISSGSSASSVTVTRSYRSVGGSGGGSFGDNLVTRSY |  |  |  |  |  |  | 7 | 6% and 8% and 4% and 9% and 12% |  | 
4 |  |  |  | LA (protein, UniProt P02545 1-661, looked up) Prelamin-A/C: METPSQRRATRSGAQASSTPLSPTRITRLQEKEDLQELNDRLAVYIDRVRSLETENAGLRLRITESEEVVSREVSGIKAAYEAELGDARKTLDSVAKERARLQLELSKVREEFKELKARNTKKEGDLIAAQARLKDLEALLNSKEAALSTALSEKRTLEGELHDLRGQVAKLEAALGEAKKQLQDEMLRRVDAENRLQTMKEELDFQKNIYSEELRETKRRHETRLVEIDNGKQREFESRLADALQELRAQHEDQVEQYKKELEKTYSAKLDNARQSAERNSNLVGAAHEELQQSRIRIDSLSAQLSQLQKQLAAKEAKLRDLEDSLARERDTSRRLLAEKEREMAEMRARMQQQLDEYQELLDIKLALDMEIHAYRKLLEGEEERLRLSPSPTSQRSRGRASSHSSQTQGGGSVTKKRKLESTESRSSFSQHARTSGRVAVEEVDEEGKFVRLRNKSNEDQSMGNWQIKRQNGDDPLLTYRFPPKFTLKAGQVVTIWAAGAGATHSPPTDLVWKAQNTWGCGNSLRTALINSTGEEVAMRKLVRSVTVVEDDEDEDGDDLLHHHHGSHCSSSGDPAEYNLRSRTVLCGTCGQPADKASASGSGAQVGGPISSGSSASSVTVTRSYRSVGGSGGGSFGDNLVTRSYLLGNSSPRTQSPQNC | 0.7757 | 4.873 | 0.8616 and 0.6545 and 0.811 | 5.1 and 4.62 and 4.9 | 0.7312 | 0.897 and 0.585 and 0.741 (2×) and 0.546 and 0.819 (2×) and 0.702 |  |  | 1.171 | 1.2 and 1.286 and 1.029
5 |  |  |  | LA-C661A (protein, UniProt P02545 1-661, looked up, variant C661A) Prelamin-A/C: METPSQRRATRSGAQASSTPLSPTRITRLQEKEDLQELNDRLAVYIDRVRSLETENAGLRLRITESEEVVSREVSGIKAAYEAELGDARKTLDSVAKERARLQLELSKVREEFKELKARNTKKEGDLIAAQARLKDLEALLNSKEAALSTALSEKRTLEGELHDLRGQVAKLEAALGEAKKQLQDEMLRRVDAENRLQTMKEELDFQKNIYSEELRETKRRHETRLVEIDNGKQREFESRLADALQELRAQHEDQVEQYKKELEKTYSAKLDNARQSAERNSNLVGAAHEELQQSRIRIDSLSAQLSQLQKQLAAKEAKLRDLEDSLARERDTSRRLLAEKEREMAEMRARMQQQLDEYQELLDIKLALDMEIHAYRKLLEGEEERLRLSPSPTSQRSRGRASSHSSQTQGGGSVTKKRKLESTESRSSFSQHARTSGRVAVEEVDEEGKFVRLRNKSNEDQSMGNWQIKRQNGDDPLLTYRFPPKFTLKAGQVVTIWAAGAGATHSPPTDLVWKAQNTWGCGNSLRTALINSTGEEVAMRKLVRSVTVVEDDEDEDGDDLLHHHHGSHCSSSGDPAEYNLRSRTVLCGTCGQPADKASASGSGAQVGGPISSGSSASSVTVTRSYRSVGGSGGGSFGDNLVTRSYLLGNSSPRTQSPQNA | 0.7753 | 4.563 | 0.9644 and 0.614 and 0.7475 | 5.03 and 4.5 and 4.16 | 0.7264 | 0.819 and 0.936 and 0.741 (2×) and 0.546 and 0.585 and 0.78 and 0.663 | 7.286 | 8% and 6% and 10% and 5% and 9% | 1.219 | 1.3 and 1.171 and 1.186
